We go through 4 molecules from patent US20170173107A1 (University of Pennsylvania, published 2017).

Positions of bridges follow the written chain, without caps; N, C: chain ends. Non-standard residues stand in square brackets, D forms with d. *: point of attachment. ABM1 = 3-(naphthalene-2-sulfonamido)propanoic acid albumin-binding tag, amide-linked to N-terminus, O=C(CCNS(=O)(=O)c1ccc2ccccc2c1)*; ABM2 = diphenyl-cyclohexanol phosphate ester hexanoic acid tag; Trp(1-Me) = Cn1cc(C[C@H](N)C(=O)O)c2ccccc21; NMeI = CC[C@H](C)[C@H](NC)C(=O)O; Sar = CNCC(=O)O

In one assay the target is complement component C3 (human, UniProt P01024 672-1663). Kind of assay: cell-based or functional assay.
Sequence of complement component C3 (P01024 23-665 P314L limits assumed, chain 1 of 2): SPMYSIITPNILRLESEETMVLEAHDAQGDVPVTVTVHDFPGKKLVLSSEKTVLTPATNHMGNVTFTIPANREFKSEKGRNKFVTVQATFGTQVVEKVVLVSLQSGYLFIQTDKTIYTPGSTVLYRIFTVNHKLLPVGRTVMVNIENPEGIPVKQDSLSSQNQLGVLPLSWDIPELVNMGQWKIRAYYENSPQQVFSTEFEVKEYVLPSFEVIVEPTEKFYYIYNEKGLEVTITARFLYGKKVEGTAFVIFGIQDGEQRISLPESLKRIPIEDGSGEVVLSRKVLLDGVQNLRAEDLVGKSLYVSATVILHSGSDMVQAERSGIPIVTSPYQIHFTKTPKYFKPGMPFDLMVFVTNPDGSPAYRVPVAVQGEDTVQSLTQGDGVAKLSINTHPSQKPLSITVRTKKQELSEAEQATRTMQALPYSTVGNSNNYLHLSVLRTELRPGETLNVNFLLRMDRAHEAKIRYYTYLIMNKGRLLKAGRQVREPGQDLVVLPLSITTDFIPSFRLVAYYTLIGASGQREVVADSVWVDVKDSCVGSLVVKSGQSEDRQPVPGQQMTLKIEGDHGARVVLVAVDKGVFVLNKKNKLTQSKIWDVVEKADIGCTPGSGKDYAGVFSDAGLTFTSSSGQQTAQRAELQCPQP
Sequence of complement component C3 (P01024 672-1663 limits assumed, chain 2 of 2): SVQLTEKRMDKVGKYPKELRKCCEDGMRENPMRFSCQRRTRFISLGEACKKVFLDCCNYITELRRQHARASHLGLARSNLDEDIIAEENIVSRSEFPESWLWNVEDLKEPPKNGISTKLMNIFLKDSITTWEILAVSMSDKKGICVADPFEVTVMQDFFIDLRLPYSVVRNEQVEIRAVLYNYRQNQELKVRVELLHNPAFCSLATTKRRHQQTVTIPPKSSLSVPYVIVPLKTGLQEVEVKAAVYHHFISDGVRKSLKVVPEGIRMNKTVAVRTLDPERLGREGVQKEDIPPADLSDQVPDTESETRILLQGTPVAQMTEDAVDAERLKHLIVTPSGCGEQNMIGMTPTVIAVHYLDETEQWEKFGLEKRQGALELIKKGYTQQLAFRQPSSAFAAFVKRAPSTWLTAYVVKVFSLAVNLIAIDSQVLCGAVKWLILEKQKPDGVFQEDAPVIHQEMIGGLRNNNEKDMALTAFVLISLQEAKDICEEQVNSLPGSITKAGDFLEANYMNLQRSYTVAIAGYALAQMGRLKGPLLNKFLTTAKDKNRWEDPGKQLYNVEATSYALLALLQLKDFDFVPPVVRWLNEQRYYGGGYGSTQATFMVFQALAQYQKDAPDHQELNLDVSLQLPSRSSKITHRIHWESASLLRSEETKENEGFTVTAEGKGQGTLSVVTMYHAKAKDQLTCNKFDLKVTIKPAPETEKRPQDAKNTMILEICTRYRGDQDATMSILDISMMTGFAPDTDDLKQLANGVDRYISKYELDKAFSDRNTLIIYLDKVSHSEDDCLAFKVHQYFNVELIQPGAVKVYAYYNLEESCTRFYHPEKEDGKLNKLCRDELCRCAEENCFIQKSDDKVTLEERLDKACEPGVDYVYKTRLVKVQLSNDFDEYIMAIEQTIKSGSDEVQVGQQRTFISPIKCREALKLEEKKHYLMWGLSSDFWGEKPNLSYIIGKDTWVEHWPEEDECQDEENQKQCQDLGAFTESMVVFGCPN
The next assay has as its target baboon albumin (baboon). Kind of assay: SPR, albumin (6.3-100 µM) over immobilized biotinylated ABM2-Cp20; apparent affinity (KD app) from steady state, single-binding-site model. The text has this:
1.2 Interaction of ABM-Compstatin conjugates with albumin.
To confirm the albumin-directed activity of the ABM-compstatin conjugates and further explore their simultaneous binding to C3 and albumin, we performed additional SPR binding studies. […] The biotinylated peptides were immobilized on a streptavidin-coated SPR sensor chip, and the interactions with albumins from different species (human, baboon, bovine, rabbit and mouse) were characterized (Table 3; FIG. 2).

Assay [1] has as its target T1, C3b (biotinylated, captured on a streptavidin sensor chip) (UniProt P01024 749-1663, biotinylated (site not stated)).
T1 construct: range 727-1641; also called site-specifically immobilized C3b
Kind of assay: SPR (Biacore 3000), single-cycle kinetics, peptide over captured biotinylated C3b, 1:1 model, 25 °C. The protocol:
1.1 Interaction of Compstatin analogues with C3b. […] Individual injections within a cycle were 2 min long with a 5-min dissociation between injections. After the end of the last injection, a 40-min dissociation time was allowed. […] The kinetic evaluation was performed in BiaEvaluation using a single cycle kinetic template (kindly provided by GE Healthcare) by globally fitting each data set to a 1:1 Langmuir binding model to achieve association and dissociation rates (kₐ and kd, respectively); the equilibrium dissociation constant (KD) was calculated from the equation KD=kd/kₐ (FIG. 1). Each assay was performed at least twice.
^aSingle-cycle kinetic analysis of compstatin conjugates was performed. Sets of five increasing concentrations were consecutively injected over a C3b surface (3000-5000 RU density) in a single cycle. The processed signals were fitted to a 1:1 binding model.

T1 sequence (P01024 23-665 P314L limits assumed, chain 1 of 2): as the sequence (P01024 23-665 P314L limits assumed, chain 1 of 2) above
T1 sequence (P01024 749-1663 limits assumed, chain 2 of 2): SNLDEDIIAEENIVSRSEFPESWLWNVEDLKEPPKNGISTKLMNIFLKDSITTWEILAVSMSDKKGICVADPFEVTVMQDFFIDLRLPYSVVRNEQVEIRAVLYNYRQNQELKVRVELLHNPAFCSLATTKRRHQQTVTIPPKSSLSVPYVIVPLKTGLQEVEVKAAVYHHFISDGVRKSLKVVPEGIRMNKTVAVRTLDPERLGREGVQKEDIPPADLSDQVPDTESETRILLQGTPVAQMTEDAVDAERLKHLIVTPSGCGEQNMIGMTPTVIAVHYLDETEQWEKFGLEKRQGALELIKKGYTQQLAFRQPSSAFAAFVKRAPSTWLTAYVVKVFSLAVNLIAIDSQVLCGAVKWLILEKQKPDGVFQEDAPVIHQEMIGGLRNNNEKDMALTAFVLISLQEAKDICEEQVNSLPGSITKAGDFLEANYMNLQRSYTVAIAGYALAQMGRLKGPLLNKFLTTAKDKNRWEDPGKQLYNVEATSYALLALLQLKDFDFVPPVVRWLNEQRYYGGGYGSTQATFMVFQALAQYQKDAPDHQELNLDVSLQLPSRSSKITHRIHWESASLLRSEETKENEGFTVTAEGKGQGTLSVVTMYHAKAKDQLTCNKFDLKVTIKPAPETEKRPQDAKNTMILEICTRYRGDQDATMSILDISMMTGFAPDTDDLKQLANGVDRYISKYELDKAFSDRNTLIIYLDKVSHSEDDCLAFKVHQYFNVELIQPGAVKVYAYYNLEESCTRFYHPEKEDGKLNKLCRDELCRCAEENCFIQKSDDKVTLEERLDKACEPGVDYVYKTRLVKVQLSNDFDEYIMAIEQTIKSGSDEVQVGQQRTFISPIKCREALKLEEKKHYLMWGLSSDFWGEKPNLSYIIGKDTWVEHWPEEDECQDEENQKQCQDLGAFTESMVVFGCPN

B1: ABM1-Cp20 (peptide)
peptide: ABM1-ICV[Trp(1-Me)]QDW[Sar]AHRC[NMeI]-NH2
modifications: disulfide 2-12
SMILES: CC[C@H](C)[C@H](NC(=O)CCNS(=O)(=O)c1ccc2ccccc2c1)C(=O)N[C@H]1CSSC[C@@H](C(=O)N(C)[C@H](C(N)=O)[C@@H](C)CC)NC(=O)[C@H](CCCNC(=N)N)NC(=O)[C@H](Cc2c[nH]cn2)NC(=O)[C@H](C)NC(=O)CN(C)C(=O)[C@H](Cc2c[nH]c3ccccc23)NC(=O)[C@H](CC(=O)O)NC(=O)[C@H](CCC(N)=O)NC(=O)[C@H](Cc2cn(C)c3ccccc23)NC(=O)[C@H](C(C)C)NC1=O
notes: also called ABMT-Cp20 (misprint of ABM1 in the text)
Consider B1, for which the “IC50 (µM), inhibition of immune complex-induced (classical pathway) complement activation in human plasma, ELISA” value (“IC50 (µM), inhibition” for short) in the assay with complement component C3 was 0.2 µM.

B2: ABM2-Cp20 (ABM2-Ile-[Cys-Val-Trp(Me)-Gln-Asp-Trp-Sar-Ala-His-Arg-Cys]-mIle-NH2) (peptide)
peptide: ABM2-ICVWQDW[Sar]AHRC[NMeI]-NH2
modifications: disulfide 2-12; not fully specified (residue 4); printed as ABM2-Ile-[Cys-Val-Trp(Me)-Gln-Asp-Trp-Sar-Ala-His-Arg-Cys]-mIle-NH2
notes: also called ABM2-Compstatin 20
As for B2, in the assay with complement component C3, the “IC50 (µM), inhibition” value was 0.17 µM.

B3: ABM2-Cp20-miniPEG-Lys(biotin) (peptide)
peptide: ICVWQDWGAHRCIK
modifications: not fully specified; ABM2 amide-linked to the N-terminus; Trp(Me) at position 4; Sar at position 8; mIle at position 13; disulfide Cys2-Cys12; miniPEG (AEEEA) spacer between mIle13 and the C-terminal Lys; biotin on the Lys side chain; made on Rink amide resin (C-terminal amide)
notes: Captured on streptavidin-coated CM5 chip at about 100 RU; also called biotinylated ABM2-Cp20; immobilized ABM2-Cp20
In the case of B3, in the assay with baboon albumin, the Kd stood at 106000 nM.

B4: Cp20 (Ac-Ile-[Cys-Val-Trp(Me)-Gln-Asp-Trp-Sar-Ala-His-Arg-Cys]-mIle-NH2) (peptide)
peptide: Ac-ICV[Trp(1-Me)]QDW[Sar]AHRC[NMeI]-NH2
modifications: disulfide 2-12
SMILES: CC[C@H](C)[C@H](NC(C)=O)C(=O)N[C@H]1CSSC[C@@H](C(=O)N(C)[C@H](C(N)=O)[C@@H](C)CC)NC(=O)[C@H](CCCNC(=N)N)NC(=O)[C@H](Cc2c[nH]cn2)NC(=O)[C@H](C)NC(=O)CN(C)C(=O)[C@H](Cc2c[nH]c3ccccc23)NC(=O)[C@H](CC(=O)O)NC(=O)[C@H](CCC(N)=O)NC(=O)[C@H](Cc2cn(C)c3ccccc23)NC(=O)[C@H](C(C)C)NC1=O
notes: Synthetic cyclic 13-residue peptide; also called compstatin analog Cp20; C20
Consider B4, for which, in the assay with complement component C3, the “IC50 (µM), inhibition” value is 0.26 µM. Besides, in assay [1], the Kd is 2.9 nM, the koff stood at 0.0067 s⁻¹ and the kon came to 2.3e+06 M⁻¹ s⁻¹.
